{
  "source": "paper PMC7480108",
  "key": {"[1]": {"molecular_target": "endogenous FGD1 (faciogenital dysplasia protein 1) (UniProt P98174)", "assay": "co-immunoprecipitation (anti-GFP nanobody, GFP-Trap) with FGD1 immunoblot", "details": "lysates of MDA-MB-231 cells; 1% of total lysate loaded as input; parent: 100"}, "GST-FGD1^18-335": {"molecular_target": "GST-FGD1^18-335 (UniProt P52734)", "sequence (P52734 18-335)": "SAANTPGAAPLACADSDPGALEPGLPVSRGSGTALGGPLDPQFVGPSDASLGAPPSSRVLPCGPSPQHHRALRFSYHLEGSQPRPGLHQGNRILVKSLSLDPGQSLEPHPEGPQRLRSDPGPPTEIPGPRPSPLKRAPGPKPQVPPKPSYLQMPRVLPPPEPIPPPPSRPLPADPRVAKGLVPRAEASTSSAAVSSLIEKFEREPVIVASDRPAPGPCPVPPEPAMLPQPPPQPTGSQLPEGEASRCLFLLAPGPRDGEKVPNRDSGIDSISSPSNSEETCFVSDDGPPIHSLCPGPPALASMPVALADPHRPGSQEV", "assay": "pull-down; GST-tagged FGD1 fragment (2 µM) immobilised on Glutathione Sepharose 4B beads, incubated with MDA-MB-231 cell lysates (untransfected or transfected with TKS5^GFP constructs) 2 h at 4°C; 50 mM Tris-HCl pH 7.5, 150 mM NaCl, 0.5 mM EDTA, 10 mM MgCl2, 10% glycerol, 0.7% NP-40; immunoblotting"}, "TKS5^GFPW1092A (human)": {"molecular_target": "TKS5^GFPW1092A (human)", "assay": "co-IP; GFP-Trap (anti-GFP nanobody beads) from NP-40 lysates of MDA-MB-231 cells expressing GFP-tagged constructs, 1 h 4°C; immunoblotting of bound proteins"}},
  "data": [
    {"molecule": "TKS5^GFP W861A", "values": [
      {"measurement": "percent of parent (% of wild-type TKS5)", "setting": "[1]", "result": 91}
    ]},
    {"molecule": "TKS5_324-1118^GFP (domain or fragment)", "values": [
      {"measurement": "percent of the input pulled down (% of the input)", "setting": "GST-FGD1^18-335", "result": 2.85}
    ]},
    {"molecule": "TKS5^GFP (natural protein)", "values": [
      {"measurement": "percent of the input pulled down (% of the input)", "setting": "GST-FGD1^18-335", "result": 1.35}
    ]},
    {"molecule": "endogenous FGD1 (faciogenital dysplasia protein 1) (natural protein) MHGHRAPGGAGPSEPEHPATNPPGAAPPACADSDPGASEPGLLARRGSGSALGGPLDPQFVGPSDTSLGAAPGHRVLPCGPSPQHHRALRFSYHLEGSQPRPGLHQGNRILVKSLSLDPGQSLEPHPEGPQRLRSDPGPPTETPSQRPSPLKRAPGPKPQVPPKPSYLQMPRMPPPLEPIPPPPSRPLPADPRVAKGLAPRAEASPSSAAVSSLIEKFEREPVIVASDRPVPGPSPGPPEPVMLPQPTSQPPVPQLPEGEASRCLFLLAPGPRDGEKVPNRDSGIDSISSPSNSEETCFVSDDGPPSHSLCPGPPALASVPVALADPHRPGSQEVDSDLEEEDDEEEEEEKDREIPVPLMERQESVELTVQQKVFHIANELLQTEKAYVSRLHLLDQVFCARLLEEARNRSSFPADVVHGIFSNICSIYCFHQQFLLPELEKRMEEWDRYPRIGDILQKLAPFLKMYGEYVKNFDRAVELVNTWTERSTQFKVIIHEVQKEEACGNLTLQHHMLEPVQRIPRYELLLKDYLLKLPHGSPDSKDAQKSLELIATAAEHSNAAIRKMERMHKLLKVYELLGGEEDIVSPTKELIKEGHILKLSAKNGTTQDRYLILFNDRLLYCVPRLRLLGQKFSVRARIDVDGMELKESSNLNLPRTFLVSGKQRSLELQARTEEEKKDWVQAINSTLLKHEQTLETFKLLNSTNREDEDTPPNSPNVDLGKRAPTPIREKEVTMCMRCQEPFNSITKRRHHCKACGHVVCGKCSEFRARLVYDNNRSNRVCTDCYVALHGVPGSSPACSQHTPQRRRSILEKQASVAAENSVICSFLHYMEKGGKGWHKAWFVVPENEPLVLYIYGAPQDVKAQRSLPLIGFEVGPPEAGERPDRRHVFKITQSHLSWYFSPETEELQRRWMAVLGRAGRGDTFCPGPTLSEDREMEEAPVAALGATAEPPESPQTRDKT", "values": [
      {"measurement": "percent of the wild-type TKS5 binding capacity (% of wild type)", "setting": "TKS5^GFPW1092A (human)", "result": 10}
    ]}
  ]
}
